{"source": "paper PMC3033427", "about": "“Role of the Small GTPase Rho3 in Golgi/Endosome Trafficking through Functional Interaction with Adaptin in Fission Yeast” (PLoS ONE, 2011)", "binders": {"B1": {"name": "GFP-Rho3 (wild-type Rho3 fused to GFP) (natural protein, S. pombe, UniProt O13928 1-205, looked up)", "chain": "MSSCFGSKKKPIYRKIVILGDGAAGKTSLLNVFTKGYFPQVYEPTIFENYIHDIFVDGNSIELSLWDTAGQEEYDQLRSLSYSDTHVIMICFAVDSRDSLENVITKWLPEVSSNCPGVKLVLVALKCDLRGADEEQVDHSKIIDYEEGLAAAKKINAVRYLECSAKLNRGVNEAFTEAARVALAAQPRGTKDGADESHGTGCIIA", "notes": "Rho3, Rho-family small GTPase of S. pombe (SPAC23C4.08); complete open reading frame amplified from genomic DNA, first methionine as in the Sanger Institute database; The name GFP-Rho3 puts GFP at the N-terminus, but the methods say the ORF 'was ligated to the N-terminus of the GFP'; also called GFP-fused Rho3; source: S. pombe cells, overexpressed from the inducible nmt1 promoter, …"}, "B2": {"name": "GFP-Rho3G22V (GTP-locked variant of Rho3 fused to GFP) (natural protein, S. pombe, UniProt O13928 1-205, looked up)", "chain": "B1 chain with G22V", "notes": "Rho3 of S. pombe (SPAC23C4.08), complete open reading frame, Gly22 changed to Val by site-directed mutagenesis; also called Rho3GV; GFP-Rho3GV; source: S. pombe cells, overexpressed from the inducible nmt1 promoter, in lysate (pull-down); not shown: GFP (S65T), N-terminal, kept"}, "B3": {"name": "GFP-Rho3E48V (effector domain mutant of Rho3 fused to GFP) (natural protein, S. pombe, UniProt O13928 1-205, looked up)", "chain": "B1 chain with E48V", "notes": "Rho3 of S. pombe (SPAC23C4.08), complete open reading frame, Glu48 changed to Val by site-directed mutagenesis; Analogue of the budding yeast rho3-V51 mutant; also called Rho3EV; GFP-Rho3EV; source: S. pombe cells, overexpressed from the inducible nmt1 promoter, in lysate (pull-down); not shown: GFP (S65T), N-terminal, kept"}}, "note": "Substitutions are numbered along the chain they refer to. In names and notes the source's numbering stands."}
{"target": "T1, Apm1-GST (purified full-length Apm1 fused to GST) (S. pombe, UniProt Q9HFE5 1-426)", "T1 construct": "Apm1, µ1 subunit of the clathrin-associated adaptor protein-1 (AP-1) complex of fission yeast, full length; the methods give no details of the construct or its expression; also called GST-fused Apm1; µ1 subunit of the AP-1 complex; source: purified; not shown: GST, C-terminal, kept", "T1 sequence (looked up)": "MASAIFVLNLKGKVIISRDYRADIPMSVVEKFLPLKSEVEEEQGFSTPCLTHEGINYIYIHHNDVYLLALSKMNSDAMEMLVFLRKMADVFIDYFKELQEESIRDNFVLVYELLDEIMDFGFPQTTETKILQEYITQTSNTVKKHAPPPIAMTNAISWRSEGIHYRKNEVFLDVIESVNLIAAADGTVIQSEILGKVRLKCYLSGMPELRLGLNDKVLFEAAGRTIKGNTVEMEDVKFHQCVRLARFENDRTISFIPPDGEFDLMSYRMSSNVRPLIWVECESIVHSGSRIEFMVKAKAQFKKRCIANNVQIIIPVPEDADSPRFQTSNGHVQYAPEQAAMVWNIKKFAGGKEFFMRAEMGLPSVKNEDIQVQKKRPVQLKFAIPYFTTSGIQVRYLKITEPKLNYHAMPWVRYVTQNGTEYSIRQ", "assay": "affinity capillary electrophoresis; GFP-fused Rho3 sample migrating in 50 mM phosphate buffer pH 6.8 containing Apm1-GST at 100 µg/ml (control: GST-Rho3 at 100 µg/ml); 15 kV, 25°C, laser-induced fluorescence detection; migration time-shift = t(control) - t(affinity)", "units": {"migration time-shift": "min"}}
{"binder": "B1", "migration time-shift": 0.45}
{"binder": "B2", "migration time-shift": 1.33}
{"binder": "B3", "migration time-shift": 0.25}
{"target": "T1, Apm1-GST (purified full-length Apm1 …)", "assay": "affinity capillary electrophoresis; GFP-fused Rho3 sample migrating in 50 mM phosphate buffer pH 6.8 containing Apm1-GST at 200 µg/ml (control: GST-Rho3 at 200 µg/ml); 15 kV, 25°C, laser-induced fluorescence detection; migration time-shift = t(control) - t(affinity)", "units": {"migration time-shift": "min"}}
{"binder": "B1", "migration time-shift": 0.84}
{"binder": "B2", "migration time-shift": 0.94}
{"binder": "B3", "migration time-shift": 0.82}
